Measurements taken from patent publication US20150140169.

T1: alpha-s1 casein from Bos taurus
T1 chain: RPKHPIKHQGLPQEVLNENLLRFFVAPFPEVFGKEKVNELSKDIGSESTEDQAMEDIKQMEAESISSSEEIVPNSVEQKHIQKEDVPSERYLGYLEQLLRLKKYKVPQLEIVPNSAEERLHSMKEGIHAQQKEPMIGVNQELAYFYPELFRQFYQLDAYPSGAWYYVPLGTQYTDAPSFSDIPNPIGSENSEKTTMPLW

B1: camel chymosin variant #136 (F223C) (protein)
chain: GKVAREPLTSYLDSQYFGKIYIGTPPQEFTVVFDTGSSDLWVPSIYCKSNVCKNHHRFDPRKSSTFRNLGKPLSIHYGTGSMEGFLGYDTVTVSNIVDPNQTVGLSTEQPGEVFTYSEFDGILGLAYPSLASEYSVPVFDNMMDRHLVARDLFSVYMDRNGQGSMLTLGAIDPSYYTGSLHWVPVTLQQYWQFTVDSVTINGVAVACVGGCQAILDTGTSVLCGPSSDILKIQMAIGATENRYGEFDVNCGNLRSMPTVVFEINGRDYPLSPSAYTSKDQGFCTSGFQGDNNSELWILGDVFIREYYSVFDRANNRVGLAKAI
B2: camel chymosin variant #137 (F223D) (protein)
chain: GKVAREPLTSYLDSQYFGKIYIGTPPQEFTVVFDTGSSDLWVPSIYCKSNVCKNHHRFDPRKSSTFRNLGKPLSIHYGTGSMEGFLGYDTVTVSNIVDPNQTVGLSTEQPGEVFTYSEFDGILGLAYPSLASEYSVPVFDNMMDRHLVARDLFSVYMDRNGQGSMLTLGAIDPSYYTGSLHWVPVTLQQYWQFTVDSVTINGVAVACVGGCQAILDTGTSVLDGPSSDILKIQMAIGATENRYGEFDVNCGNLRSMPTVVFEINGRDYPLSPSAYTSKDQGFCTSGFQGDNNSELWILGDVFIREYYSVFDRANNRVGLAKAI
B3: bovine chymosin B variant #7 (K221V) (protein)
chain: GEVASVPLTNYLDSQYFGKIYLGTPPQEFTVLFDTGSSDFWVPSIYCKSNACKNHQRFDPRKSSTFQNLGKPLSIHYGTGSMQGILGYDTVTVSNIVDIQQTVGLSTQEPGDVFTYAEFDGILGMAYPSLASEYSIPVFDNMMNRHLVAQDLFSVYMDRNGQESMLTLGAIDPSYYTGSLHWVPVTVQQYWQFTVDSVTISGVVVACEGGCQAILDTGTSVLVGPSSDILNIQQAIGATQNQYGEFDIDCDNLSYMPTVVFEINGKMYPLTPSAYTSQDQGFCTSGFQSENHSQKWILGDVFIREYYSVFDRANNLVGLAKAI
B4: bovine chymosin B variant #103 (A51I, K221T) (protein)
chain: GEVASVPLTNYLDSQYFGKIYLGTPPQEFTVLFDTGSSDFWVPSIYCKSNICKNHQRFDPRKSSTFQNLGKPLSIHYGTGSMQGILGYDTVTVSNIVDIQQTVGLSTQEPGDVFTYAEFDGILGMAYPSLASEYSIPVFDNMMNRHLVAQDLFSVYMDRNGQESMLTLGAIDPSYYTGSLHWVPVTVQQYWQFTVDSVTISGVVVACEGGCQAILDTGTSTLVGPSSDILNIQQAIGATQNQYGEFDIDCDNLSYMPTVVFEINGKMYPLTPSAYTSQDQGFCTSGFQSENHSQKWILGDVFIREYYSVFDRANNLVGLAKAI
B5: bovine chymosin B variant #71 (A51V, K221V) (protein)
chain: GEVASVPLTNYLDSQYFGKIYLGTPPQEFTVLFDTGSSDFWVPSIYCKSNVCKNHQRFDPRKSSTFQNLGKPLSIHYGTGSMQGILGYDTVTVSNIVDIQQTVGLSTQEPGDVFTYAEFDGILGMAYPSLASEYSIPVFDNMMNRHLVAQDLFSVYMDRNGQESMLTLGAIDPSYYTGSLHWVPVTVQQYWQFTVDSVTISGVVVACEGGCQAILDTGTSVLVGPSSDILNIQQAIGATQNQYGEFDIDCDNLSYMPTVVFEINGKMYPLTPSAYTSQDQGFCTSGFQSENHSQKWILGDVFIREYYSVFDRANNLVGLAKAI
B6: bovine chymosin B variant #110 (A51V, K221V, N50D, N144H, N160D, S201D, Q242E, M267E, Q280E) (protein)
chain: GEVASVPLTNYLDSQYFGKIYLGTPPQEFTVLFDTGSSDFWVPSIYCKSDVCKNHQRFDPRKSSTFQNLGKPLSIHYGTGSMQGILGYDTVTVSNIVDIQQTVGLSTQEPGDVFTYAEFDGILGMAYPSLASEYSIPVFDNMMHRHLVAQDLFSVYMDRDGQESMLTLGAIDPSYYTGSLHWVPVTVQQYWQFTVDSVTIDGVVVACEGGCQAILDTGTSVLVGPSSDILNIQQAIGATQNEYGEFDIDCDNLSYMPTVVFEINGKEYPLTPSAYTSQDEGFCTSGFQSENHSQKWILGDVFIREYYSVFDRANNLVGLAKAI
B7: bovine chymosin B variant #74 (A51V, K221M) (protein)
chain: GEVASVPLTNYLDSQYFGKIYLGTPPQEFTVLFDTGSSDFWVPSIYCKSNVCKNHQRFDPRKSSTFQNLGKPLSIHYGTGSMQGILGYDTVTVSNIVDIQQTVGLSTQEPGDVFTYAEFDGILGMAYPSLASEYSIPVFDNMMNRHLVAQDLFSVYMDRNGQESMLTLGAIDPSYYTGSLHWVPVTVQQYWQFTVDSVTISGVVVACEGGCQAILDTGTSMLVGPSSDILNIQQAIGATQNQYGEFDIDCDNLSYMPTVVFEINGKMYPLTPSAYTSQDQGFCTSGFQSENHSQKWILGDVFIREYYSVFDRANNLVGLAKAI
B8: bovine chymosin B variant #98 (A51V, K221V, S135T, A126G, S273Y, Q240E) (protein)
chain: GEVASVPLTNYLDSQYFGKIYLGTPPQEFTVLFDTGSSDFWVPSIYCKSNVCKNHQRFDPRKSSTFQNLGKPLSIHYGTGSMQGILGYDTVTVSNIVDIQQTVGLSTQEPGDVFTYAEFDGILGMGYPSLASEYTIPVFDNMMNRHLVAQDLFSVYMDRNGQESMLTLGAIDPSYYTGSLHWVPVTVQQYWQFTVDSVTISGVVVACEGGCQAILDTGTSVLVGPSSDILNIQQAIGATENQYGEFDIDCDNLSYMPTVVFEINGKMYPLTPYAYTSQDQGFCTSGFQSENHSQKWILGDVFIREYYSVFDRANNLVGLAKAI
B9: bovine chymosin B variant #62 (V223Q) (protein)
chain: GEVASVPLTNYLDSQYFGKIYLGTPPQEFTVLFDTGSSDFWVPSIYCKSNACKNHQRFDPRKSSTFQNLGKPLSIHYGTGSMQGILGYDTVTVSNIVDIQQTVGLSTQEPGDVFTYAEFDGILGMAYPSLASEYSIPVFDNMMNRHLVAQDLFSVYMDRNGQESMLTLGAIDPSYYTGSLHWVPVTVQQYWQFTVDSVTISGVVVACEGGCQAILDTGTSKLQGPSSDILNIQQAIGATQNQYGEFDIDCDNLSYMPTVVFEINGKMYPLTPSAYTSQDQGFCTSGFQSENHSQKWILGDVFIREYYSVFDRANNLVGLAKAI

Biological target: T1, alpha-s1 casein from Bos taurus

Q: How did the (αSN1-1)/(αSN1), 6 hours, 11° C. turn out when B1 was run?
A: 0.7

Q: And the (αSN1-1)/(αSN1), 24 hours, 11° C.?
A: 1.9

Q: And the αs1-I CN, 6 hours, 11° C.?
A: 2.06e+07 Volume

Q: What about the αs1-I CN, 24 hours, 11° C. of the same protein?
A: 2.03e+07 Volume

Q: What about the αs1 CN, 6 hours, 11° C. of the same protein?
A: 2.86e+07 Volume

Q: What about the αs1 CN, 24 hours, 11° C. of the same protein?
A: 1.06e+07 Volume

Q: Which results are given for B2?
A: (αSN1-1)/(αSN1), 6 hours, 11° C.: 0.7; (αSN1-1)/(αSN1), 24 hours, 11° C.: 2.3; αs1-I CN, 6 hours, 11° C.: 2.26e+07 Volume; αs1-I CN, 24 hours, 11° C.: 2.55e+07 Volume; αs1 CN, 6 hours, 11° C.: 3.14e+07 Volume; αs1 CN, 24 hours, 11° C.: 1.1e+07 Volume

Q: Which results are given for B3?
A: hydrolysis of the first cut in alpha-s1-casein: show a clear hydrolysis of the first cut in alpha-s1-casein, leading to a rapid formation of fragment alpha-s1-I casein; small, 6 hours, 11° C.: 0 Volume; small, 24 hours, 11° C.: 1.05e+07 Volume; αs1-I CN, 6 hours, 11° C.: 2.28e+07 Volume; αs1-I CN, 24 hours, 11° C.: 1.82e+07 Volume; αs1-I CN/αs1 CN, 6 hours, 11° C.: 2.1; αs1-I CN/αs1 CN, 24 hours, 11° C.: 6.4; αs1 CN, 6 hours, 11° C.: 1.07e+07 Volume; αs1 CN, 24 hours, 11° C.: 2.8e+06 Volume

Q: What does the source list for B4?
A: hydrolysis of the first cut in alpha-s1-casein: show a clear hydrolysis of the first cut in alpha-s1-casein, leading to a rapid formation of fragment alpha-s1-I casein; small, 16 hours, 30° C.: 1.3e+06 Volume; αs1-I CN, 16 hours, 30° C.: 2.03e+07 Volume; αs1 CN, 16 hours, 30° C.: 1.4e+06 Volume

Q: With B5 as the protein, how does the “hydrolysis of the first cut in alpha-s1-casein” value (“hydrolysis … in alpha-s1-casein” below) read?
A: show a clear hydrolysis of the first cut in alpha-s1-casein, leading to a rapid formation of fragment alpha-s1-I casein

Q: What about the small, 6 hours, 11° C. of the same protein?
A: 0 Volume

Q: And the small, 16 hours, 30° C.?
A: 2.4e+06 Volume

Q: And the small, 24 hours, 11° C.?
A: 0 Volume

Q: What about the αs1-I CN, 6 hours, 11° C. of the same protein?
A: 2.54e+07 Volume

Q: What about the αs1-I CN, 16 hours, 30° C. of the same protein?
A: 1.97e+07 Volume

Q: And the αs1-I CN, 24 hours, 11° C.?
A: 2.46e+07 Volume

Q: What about the αs1-I CN/αs1 CN, 6 hours, 11° C. of the same protein?
A: 2.9

Q: What about the αs1-I CN/αs1 CN, 24 hours, 11° C. of the same protein?
A: 9.8

Q: And the αs1 CN, 6 hours, 11° C.?
A: 8.8e+06 Volume

Q: And the αs1 CN, 16 hours, 30° C.?
A: 1.6e+06 Volume

Q: And the αs1 CN, 24 hours, 11° C.?
A: 2.5e+06 Volume

Q: With B6 as the protein, how does the “hydrolysis … in alpha-s1-casein” value read?
A: show a clear hydrolysis of the first cut in alpha-s1-casein, leading to a rapid formation of fragment alpha-s1-I casein

Q: What about the small, 16 hours, 30° C. of the same protein?
A: 1.4e+06 Volume

Q: What about the αs1-I CN, 16 hours, 30° C. of the same protein?
A: 2.26e+07 Volume

Q: What about the αs1 CN, 16 hours, 30° C. of the same protein?
A: 3e+06 Volume

Q: For B7, which “hydrolysis … in alpha-s1-casein” value is on record?
A: show a clear hydrolysis of the first cut in alpha-s1-casein, leading to a rapid formation of fragment alpha-s1-I casein

Q: What about the small, 6 hours, 11° C. of the same protein?
A: 0 Volume

Q: And the small, 16 hours, 30° C.?
A: 5.1e+06 Volume

Q: What about the small, 24 hours, 11° C. of the same protein?
A: 0 Volume

Q: What about the αs1-I CN, 6 hours, 11° C. of the same protein?
A: 1.98e+07 Volume

Q: And the αs1-I CN, 16 hours, 30° C.?
A: 1.86e+07 Volume

Q: What about the αs1-I CN, 24 hours, 11° C. of the same protein?
A: 2.47e+07 Volume

Q: What about the αs1-I CN/αs1 CN, 6 hours, 11° C. of the same protein?
A: 0.9

Q: What about the αs1-I CN/αs1 CN, 24 hours, 11° C. of the same protein?
A: 3.9

Q: What about the αs1 CN, 6 hours, 11° C. of the same protein?
A: 2.09e+07 Volume

Q: And the αs1 CN, 16 hours, 30° C.?
A: 1.8e+06 Volume

Q: And the αs1 CN, 24 hours, 11° C.?
A: 6.3e+06 Volume

Q: Which results are given for B8?
A: hydrolysis of the first cut in alpha-s1-casein: show a clear hydrolysis of the first cut in alpha-s1-casein, leading to a rapid formation of fragment alpha-s1-I casein; small, 16 hours, 30° C.: 1.4e+06 Volume; αs1-I CN, 16 hours, 30° C.: 1.96e+07 Volume; αs1 CN, 16 hours, 30° C.: 1.5e+06 Volume

Q: With B9 as the protein, how does the “hydrolysis of the first cut in alpha s1-casein” value read?
A: variant 62 shows slow hydrolysis of the first cut in alpha s1-casein, and therefore slow accumulation of alpha s1-I casein

Q: What about the small, 6 hours, 11° C. of the same protein?
A: 0 Volume

Q: And the small, 24 hours, 11° C.?
A: 4.1e+06 Volume

Q: What about the αs1-I CN, 6 hours, 11° C. of the same protein?
A: 1.29e+07 Volume

Q: What about the αs1-I CN, 24 hours, 11° C. of the same protein?
A: 1.99e+07 Volume

Q: What about the αs1 CN, 6 hours, 11° C. of the same protein?
A: 2.67e+07 Volume

Q: What about the αs1 CN, 24 hours, 11° C. of the same protein?
A: 1.34e+07 Volume
